# Test results: the Human Domainome abundance scans (Beltran et al. 2025)
# ± gives the uncertainty stated by the source.
# B1: POU domain, class 3, transcription factor 2, residues 262 to 338; numbered along this chain, P20265 (parent)
# chain: EDTPTSDDLEQFAKQFKQRRIKLGFTQADVGLALGTLYGNVFSQTTICRFEALQLSFKNMCKLKPLLNKWLEEADSS
# Variants of: B1
# Test: abundance fitness (aPCA) (normalised: wild type 0, dead -1); higher = more abundant; growth selection in yeast, the domain comes from the species named
# Conditions: Homo sapiens
row,Variant,abundance fitness
1,EDTPTSDDLEQFAKQFVQRRIKLGFTQADVGLALGTLYGNVFSQTTICRFEALQLSFKNMCKLKPLLNKWLEEADSS [K17V],-0.316 ± 0.029
2,EDTPTSDDLEQFAKQFKQRRIKLGFTQADVGLALGTLYGNVFSQTTICRFEALQLSFKNMSKLKPLLNKWLEEADSS [C61S],-0.165 ± 0.034
3,EDTPTSDDLEQFAKQFKQRRIKLGFTQADVGLALGTLYGNVFSQTTICRFEALQLSFKNMYKLKPLLNKWLEEADSS [C61Y],-0.252 ± 0.077
4,EDTPTSDDLEQFAKQFKQRRIKLGFTQADVGLALGTLYGNVFSQTTICRFEALQLSFKNMLKLKPLLNKWLEEADSS [C61L],-0.001 ± 0.029
5,EDTPTSDDLEQFAKQFKQRRIKLGFTQADVGLALGTLYGNVFSQTTICRFEALQLSFKNMQKLKPLLNKWLEEADSS [C61Q],-0.112 ± 0.048
6,EDTPTSDDLEQFAKQFKQRRIKLGFTQADVGLALGTLYGNVFSQTTICRFEALQLSFKNMCKLKPLLNKWEEEADSS [L71E],-0.598 ± 0.49
7,EDTPTSDDLEQFAKQFKQRRIKLGFTQADVGLALMTLYGNVFSQTTICRFEALQLSFKNMCKLKPLLNKWLEEADSS [G35M],-0.174 ± 0.042
8,EDTPTSDDLEQFAKQFKQRRIKLGFSQADVGLALGTLYGNVFSQTTICRFEALQLSFKNMCKLKPLLNKWLEEADSS [T26S],-0.014 ± 0.038
9,EDTPTSDDLEQFAKQFKQRRIKLGFLQADVGLALGTLYGNVFSQTTICRFEALQLSFKNMCKLKPLLNKWLEEADSS [T26L],-0.758 ± 0.085
10,EDTPTSDDLEQFAKQFKQRRIKLGFTQADVGLALGTLYGNVFSQTTICRFEALQLSFKNMCELKPLLNKWLEEADSS [K62E],0.006 ± 0.038
11,EDTPTSDDLEQFAKQFKQRRIKLGFTQADVGLALGTLYGNVFSQTTICRFEALQLSFKNMCSLKPLLNKWLEEADSS [K62S],-0.055 ± 0.032
12,EDTPTSDDLEQFAKQFKQRRIKLGFTQADVGLALGTLYGNVFSQTTICRFEALQLSFKNMCKLKPLLNKWLEEADRS [S76R],0.028 ± 0.028
13,EDTPTSDDLEQFAKQFKQRRIKLGFTQADVGLALGTLYGNVFSQTTICRFEALQLSFKNMCKLKPLLNKWLEEADWS [S76W],-0.163 ± 0.034
14,EDTPTSDDLEQFAKQFKQRRIKLGFTQADVGLALGTLYGNVFSQTTICRSEALQLSFKNMCKLKPLLNKWLEEADSS [F50S],-0.821 ± 0.075
15,EDTPTSDQLEQFAKQFKQRRIKLGFTQADVGLALGTLYGNVFSQTTICRFEALQLSFKNMCKLKPLLNKWLEEADSS [D8Q],0.055 ± 0.054
16,EDTPTSDDLEQIAKQFKQRRIKLGFTQADVGLALGTLYGNVFSQTTICRFEALQLSFKNMCKLKPLLNKWLEEADSS [F12I],-0.66 ± 0.3
17,EDTPTSDDLEQFAKQFKQRRIKLGFTQADVGLALGTLYGNVFSQTTICRFEALQLSFKNMCKLKPLLNKWLEKADSS [E73K],0.118 ± 0.089
18,EDTPTSDDLEQFAKQFKQRRIKLGFTQADVGLATGTLYGNVFSQTTICRFEALQLSFKNMCKLKPLLNKWLEEADSS [L34T],-0.742 ± 0.1
19,EDTPTSDDLEQFAKQFKQRRIKLGFTQADVGLAKGTLYGNVFSQTTICRFEALQLSFKNMCKLKPLLNKWLEEADSS [L34K],-0.441 ± 0.076
20,EDTPTSDDLEQFAKQFKQRRIKLGFTQADVGLALGTLYGNVFSQTTICRFEAYQLSFKNMCKLKPLLNKWLEEADSS [L53Y],0.018 ± 0.07
21,EDTPTSDDLEQFAKQFKQRRIKLGFTQADVGLALGTLYGNVFSQTTICRFEACQLSFKNMCKLKPLLNKWLEEADSS [L53C],0.044 ± 0.042
22,NDTPTSDDLEQFAKQFKQRRIKLGFTQADVGLALGTLYGNVFSQTTICRFEALQLSFKNMCKLKPLLNKWLEEADSS [E1N],0.124 ± 0.21
23,MDTPTSDDLEQFAKQFKQRRIKLGFTQADVGLALGTLYGNVFSQTTICRFEALQLSFKNMCKLKPLLNKWLEEADSS [E1M],0.05 ± 0.066
24,EDTPTSDDLEQFAKQFKQRRIKLGFTQADVGLALGTLYGNVFSQTTICRFDALQLSFKNMCKLKPLLNKWLEEADSS [E51D],-0.638 ± 0.12

row,Variant,abundance fitness
1,EDTPTSDDLEQFAKQFKQRRIKLGFTQADVGLALGTLYGNVFSQTTICRFLALQLSFKNMCKLKPLLNKWLEEADSS [E51L],-1.05 ± 0.14
2,EDTPTSDDLEQFAKQFKQRRIKLGFTQADVGLALGTLYGNVFSQTTICRFVALQLSFKNMCKLKPLLNKWLEEADSS [E51V],-0.965 ± 0.09
3,EDTPTSDDLEQFAKQFKQRRIKLGFTQADVGLALGTLYGNVFSQTTICRFEALQLSFKNMCKLKPLLNKWLIEADSS [E72I],-0.102 ± 0.058
4,EDYPTSDDLEQFAKQFKQRRIKLGFTQADVGLALGTLYGNVFSQTTICRFEALQLSFKNMCKLKPLLNKWLEEADSS [T3Y],-0.029 ± 0.063
5,EDMPTSDDLEQFAKQFKQRRIKLGFTQADVGLALGTLYGNVFSQTTICRFEALQLSFKNMCKLKPLLNKWLEEADSS [T3M],0.117 ± 0.049
6,EDTPTSDDLVQFAKQFKQRRIKLGFTQADVGLALGTLYGNVFSQTTICRFEALQLSFKNMCKLKPLLNKWLEEADSS [E10V],0.038 ± 0.028
7,EDTPISDDLEQFAKQFKQRRIKLGFTQADVGLALGTLYGNVFSQTTICRFEALQLSFKNMCKLKPLLNKWLEEADSS [T5I],-0.006 ± 0.075
8,EDTPTSDDLEQFAKQRKQRRIKLGFTQADVGLALGTLYGNVFSQTTICRFEALQLSFKNMCKLKPLLNKWLEEADSS [F16R],-0.69 ± 0.04
9,EDTPTSDDLEQFAKQWKQRRIKLGFTQADVGLALGTLYGNVFSQTTICRFEALQLSFKNMCKLKPLLNKWLEEADSS [F16W],-0.595 ± 0.047
10,EDTPTSDDLETFAKQFKQRRIKLGFTQADVGLALGTLYGNVFSQTTICRFEALQLSFKNMCKLKPLLNKWLEEADSS [Q11T],-0.049 ± 0.046
11,EDTPTSDDLEDFAKQFKQRRIKLGFTQADVGLALGTLYGNVFSQTTICRFEALQLSFKNMCKLKPLLNKWLEEADSS [Q11D],-0.114 ± 0.066
12,EDTPTSDDLELFAKQFKQRRIKLGFTQADVGLALGTLYGNVFSQTTICRFEALQLSFKNMCKLKPLLNKWLEEADSS [Q11L],-0.04 ± 0.034
13,EDTPTSDDLEQFAKQFKQFRIKLGFTQADVGLALGTLYGNVFSQTTICRFEALQLSFKNMCKLKPLLNKWLEEADSS [R19F],-0.439 ± 0.09
14,EDTPTSDDLEQFAKQFKQRRIKLGFTQADVGLALGTLYGNVFSQTTICRFEALQLSFKNMCKRKPLLNKWLEEADSS [L63R],-0.794 ± 0.048
15,EDTPTSDDLEQFAFQFKQRRIKLGFTQADVGLALGTLYGNVFSQTTICRFEALQLSFKNMCKLKPLLNKWLEEADSS [K14F],-0.337 ± 0.21
16,EDTPTSDDLEQFQKQFKQRRIKLGFTQADVGLALGTLYGNVFSQTTICRFEALQLSFKNMCKLKPLLNKWLEEADSS [A13Q],-0.73 ± 0.12
17,EDTPTSDDLEQFDKQFKQRRIKLGFTQADVGLALGTLYGNVFSQTTICRFEALQLSFKNMCKLKPLLNKWLEEADSS [A13D],-0.865 ± 0.14
18,EDTPTSDDLEQFAKQFKQRRIKLGFTQADVGLALGTLYGNVFSQTTICRFEALVLSFKNMCKLKPLLNKWLEEADSS [Q54V],-0.535 ± 0.06
19,EDTPTSDDLEQFAKQFKQRRIKLGFTQADVGLALGTLYGNVFSQTTICRFEALQLSFKYMCKLKPLLNKWLEEADSS [N59Y],-0.103 ± 0.068
20,EDTPTSDDLEQFAKQFKQRRIKLGFTQADVGLALGTLYGNVFSQTTPCRFEALQLSFKNMCKLKPLLNKWLEEADSS [I47P],-1.02 ± 0.19
21,EDTPTSDDLEQFAKQFKQRRIKLGFTQADVGLALGTLYGNVFSQNTICRFEALQLSFKNMCKLKPLLNKWLEEADSS [T45N],-0.08 ± 0.064
22,EDTPTSDDLEQFAKQFKQRRIKLGFTQADVGLALGTLYGNVFSQTTICRFEALQLQFKNMCKLKPLLNKWLEEADSS [S56Q],-0.385 ± 0.064
23,EDTPTQDDLEQFAKQFKQRRIKLGFTQADVGLALGTLYGNVFSQTTICRFEALQLSFKNMCKLKPLLNKWLEEADSS [S6Q],0.124 ± 0.035
24,EDTPTSDDLEQFAKQFKQRRIKLGFTQADVGLALGTLYGNVFSQTTICRFEALQLSFKNMCKLKPLLWKWLEEADSS [N68W],0.004 ± 0.1

row,Variant,abundance fitness
1,EDTPTSDDLEQFAKQFKQRRIKLGFTQADVGLALGTLYGNVFSQTTICRFEALQLSFKNKCKLKPLLNKWLEEADSS [M60K],-0.97 ± 0.18
2,EDTPTSDDLEQFAKQFKQRRIKLGFTQADVGLALGTLYGNVFSQTTICRFEALQLSFKNDCKLKPLLNKWLEEADSS [M60D],-0.961 ± 0.2
3,EDTPTSDDLEQFAKQFKQRRIKLGFTQVDVGLALGTLYGNVFSQTTICRFEALQLSFKNMCKLKPLLNKWLEEADSS [A28V],-0.204 ± 0.033
4,EDTPTSDDLEQFAKQFKQRRIKLGFTQADVGLALGTSYGNVFSQTTICRFEALQLSFKNMCKLKPLLNKWLEEADSS [L37S],-0.093 ± 0.037
5,EDTPTSLDLEQFAKQFKQRRIKLGFTQADVGLALGTLYGNVFSQTTICRFEALQLSFKNMCKLKPLLNKWLEEADSS [D7L],-0.434 ± 0.31
6,EDTPTSDDLEQFAKQFKQRRIKLGFTQADVGLALGTLYGNVFSQTTICRFEALQLSFKNMCKLKPLDNKWLEEADSS [L67D],-0.759 ± 0.43
7,EDTPTSDDLEQFAKQFKQRRIKLGFTQADVGLALGTLYGNVFSQTTICRFEALQLSFKNMCKLKPLLNKDLEEADSS [W70D],-0.431 ± 0.15
8,EDTPTSDDLEQFAKQFKQRRIKLGFTQADVGLALGTLYGNVFSQTTICRFEALQLSFKNMCKLKPLLNKELEEADSS [W70E],-0.742 ± 0.077
9,EDTPTSDDLEQFAKQFKQRRIKLGFTQADVGLALGTLYGNVFSQTTICRFEALQLSFRNMCKLKPLLNKWLEEADSS [K58R],-0.058 ± 0.031
10,EDTPTSDDLEQFAKQFKQRRIKLGFTQADVGLALGTLYGNVFSQTTICRFEALQLSFLNMCKLKPLLNKWLEEADSS [K58L],-0.163 ± 0.042
11,EDTPTSDDLEQFAKQFKQRRIKLGFTQADVGLALGTLYGNVFSQTTICRFEVLQLSFKNMCKLKPLLNKWLEEADSS [A52V],-0.615 ± 0.043
12,EDTPTSDDLEQFAKQFKQRRIKLGFTQADVGLALGTLYGNVFSQTTICRFEALQLSFKNMCKLKPLLNKWLEEEDSS [A74E],-0.065 ± 0.037
13,EDTPTSDDLEQFAKQFKQRRIKLGFTQADVGLALGTLYGNVFSQTTICRFEALQLSFKNMCKLKPLLNKWLEEQDSS [A74Q],-0.046 ± 0.055
14,EDTPTSDDLEQFAKQFKQRRIKLGFTQADVMLALGTLYGNVFSQTTICRFEALQLSFKNMCKLKPLLNKWLEEADSS [G31M],-0.291 ± 0.058
15,EDTPTSDDLEQFAKQFKQRRIKLGFTQADVDLALGTLYGNVFSQTTICRFEALQLSFKNMCKLKPLLNKWLEEADSS [G31D],-0.385 ± 0.08
16,EDTPTSDDLEQFAKQFKQRRIKLGFTQADVTLALGTLYGNVFSQTTICRFEALQLSFKNMCKLKPLLNKWLEEADSS [G31T],-0.096 ± 0.048
17,EHTPTSDDLEQFAKQFKQRRIKLGFTQADVGLALGTLYGNVFSQTTICRFEALQLSFKNMCKLKPLLNKWLEEADSS [D2H],0.015 ± 0.051
18,EDTPTSDDLEQFAKQFKQRRIKLGFTQADVGLALGTLYGLVFSQTTICRFEALQLSFKNMCKLKPLLNKWLEEADSS [N40L],-0.173 ± 0.037
19,EDTPTSDDLEQFAKQFKQRRIKLGFTQADVGLALGTLYGTVFSQTTICRFEALQLSFKNMCKLKPLLNKWLEEADSS [N40T],-0.063 ± 0.051
20,EDTPTSDDLEQFAKQFKQRRIKLGFTQADVGLALGTLYGNVFSQTTICRFEALQLSFKNMCKLDPLLNKWLEEADSS [K64D],-1.06 ± 0.23
21,EDTPTSDDLEQFAKQFKQRRICLGFTQADVGLALGTLYGNVFSQTTICRFEALQLSFKNMCKLKPLLNKWLEEADSS [K22C],-0.042 ± 0.057
22,EDTPTSDDLEQFAKQFKQRRIHLGFTQADVGLALGTLYGNVFSQTTICRFEALQLSFKNMCKLKPLLNKWLEEADSS [K22H],-0.168 ± 0.064
23,EDTPTSDDLEQFAKQFKQRRIKLGFTQADVGLALGTLYGNYFSQTTICRFEALQLSFKNMCKLKPLLNKWLEEADSS [V41Y],-0.12 ± 0.092
